# Substitutions are numbered along the chain they refer to. Names and notes keep the numbering of the source.
# B1: Plasmodium falciparum nucleosome assembly protein PfNapL, wild type (natural protein, UniProt Q8I608 1-347, looked up)
# chain: MAANEGNQPIPPEEEKEISSLLESIKIDDDKMTDLTEEQKETLKKLKLYQKEYYDYESKFEYELFLLRQKYHDLYGPIYDKRREALVGNGEAKIGTPNLPEFWLRALRNNNTVSHVIEDHDEEILVYLNDIRCDYIKKNKEKKEGFILSFYFATNPFFSNSVLTKTYHMKCVDCDNEPVLLHTEATVIDWYDNKNILKKNVVKKQHNKNSREVKTVQQTVNRDSFFHFFTSHKVPNSNVIKQLSKHEVAQLEMIIEGDYEVALTIKERIIPYAVDYYLGIIIESESNSIVSDVDSSYSSSENNSNYNSYESNNSAYNDENSNVDTNEYDDNEEEEEGAKSNEDPLTS
# B2: PfNapL D192A (natural protein)
# chain: B1 chain with D192A
# B3: PfNapL H227A (natural protein)
# chain: B1 chain with H227A
# B4: PfNapL E260A (natural protein)
# chain: B1 chain with E260A
# B5: PfNapL K266A (natural protein)
# chain: B1 chain with K266A
# B6: PfNapL T230A (natural protein)
# chain: B1 chain with T230A
# B7: PfNapL Y259A (natural protein)
# chain: B1 chain with Y259A
# Molecular target: the molecule itself
# Assay: crystal structure
row,Binder,binding result
1,B1,binds

# Molecular target: histone H4 (calf thymus) (calf, UniProt P62803 1-103)
# Assay: ELISA
row,Binder,binding result
1,B1,binds
2,B2,binds
3,B3,binds
4,B4,binds
5,B5,binds
6,B6,binds
7,B7,binds

# Source: PMC2665062 (The Journal of Biological Chemistry, 2009)
